Assay results from patent publication US20240116985A1 (published 2024).
One block for each binder: values may come before it. Starred links: 1 amine or outer side, 2 acyl side, 3 side chain; linkers in the order of their positions; H or OH if unused. Positions of bridges follow the written chain, without caps; N, C: chain ends. Non-standard residues stand in square brackets, D forms with d. Primed or numbered codes have the meaning given here. B5(29) = 2-amino-2-(pent-4-en-1-yl)hept-6-enoic acid (2,2-bis(4-pentenyl)glycine), stitching residue bearing both staples, C=CCCCC(CCCC=C)(N[*:1])C(=O)[*:2]; PyrS2″ = (S)-3-amino-1-((pent-4-en-1-yloxy)carbonyl)pyrrolidine-3-carboxylic acid (stapling residue), C=CCCCOC(=O)N1CC[C@@](N[*:1])(C(=O)[*:2])C1; B5(17) = 2,2-bis(4-pentenyl)glycine = 2-amino-2-(pent-4-en-1-yl)hept-6-enoic acid, stitching residue, C=CCCCC(CCCC=C)(N[*:1])C(=O)[*:2]; B5(4) = 2,2-bis(4-pentenyl)glycine = 2-amino-2-(pent-4-en-1-yl)hept-6-enoic acid (stitching residue), C=CCCCC(CCCC=C)(N[*:1])C(=O)[*:2]; B5(5) = 2,2-bis(4-pentenyl)glycine, 2-amino-2-(pent-4-en-1-yl)hept-6-enoic acid (stitching residue), C=CCCCC(CCCC=C)(N[*:1])C(=O)[*:2]; TfeGA = (S)-2-amino-3-((carboxymethyl)(2,2,2-trifluoroethyl)amino)propanoic acid, O=C([C@H](CN(CC(=O)[*:3])CC(F)(F)F)N[*:1])[*:2]; PyrS2 = (S)-3-amino-1-((pent-4-en-1-yloxy)carbonyl)pyrrolidine-3-carboxylic acid, C=CCCCOC(=O)N1CC[C@@](N[*:1])(C(=O)[*:2])C1; B5(19) = 2-amino-2-(pent-4-en-1-yl)hept-6-enoic acid (bis(4-pentenyl)glycine), C=CCCCC(CCCC=C)(N[*:1])C(=O)[*:2]; B5(3) = 2,2-bis(4-pentenyl)glycine (stitching residue), C=CCCCC(CCCC=C)(N[*:1])C(=O)[*:2]; AspSH = (S)-2-amino-4-mercapto-4-oxobutanoic acid, O=C(C[C@H](N[*:1])C(=O)[*:2])S[*:3]; B5 = 2-amino-2-(pent-4-en-1-yl)hept-6-enoic acid, C=CCCCC(CCCC=C)(N[*:1])C(=O)[*:2]; Phe(2-Cl) = N[C@@H](Cc1ccccc1Cl)C(=O)O; hLeu(5-Me) = CC(C)(C)CC[C@H](N)C(=O)O; Bta = N[C@@H](Cc1csc2ccccc12)C(=O)O; hTyr = N[C@@H](CCc1ccc(O)cc1)C(=O)O; αAllylPro = C=CC[C@@]1(C(=O)O)CCCN1; tBuAla = CC(C)(C)C[C@H](N)C(=O)O; 3Thi = N[C@@H](Cc1ccsc1)C(=O)O; Cha = N[C@@H](CC1CCCCC1)C(=O)O; S8 = C=CCCCCCC[C@](C)(N)C(=O)O; PyrS2(4) = not defined here; TfeGA″ = not defined here; hSer = N[C@@H](CCO)C(=O)O; Nle = CCCC[C@H](N)C(=O)O

Key:
B-cat-Halo [1] = biological target: T1, B-cat-Halo (UniProt P35222 1-781); assay: cell-based or functional assay
T1 sequence (looked up): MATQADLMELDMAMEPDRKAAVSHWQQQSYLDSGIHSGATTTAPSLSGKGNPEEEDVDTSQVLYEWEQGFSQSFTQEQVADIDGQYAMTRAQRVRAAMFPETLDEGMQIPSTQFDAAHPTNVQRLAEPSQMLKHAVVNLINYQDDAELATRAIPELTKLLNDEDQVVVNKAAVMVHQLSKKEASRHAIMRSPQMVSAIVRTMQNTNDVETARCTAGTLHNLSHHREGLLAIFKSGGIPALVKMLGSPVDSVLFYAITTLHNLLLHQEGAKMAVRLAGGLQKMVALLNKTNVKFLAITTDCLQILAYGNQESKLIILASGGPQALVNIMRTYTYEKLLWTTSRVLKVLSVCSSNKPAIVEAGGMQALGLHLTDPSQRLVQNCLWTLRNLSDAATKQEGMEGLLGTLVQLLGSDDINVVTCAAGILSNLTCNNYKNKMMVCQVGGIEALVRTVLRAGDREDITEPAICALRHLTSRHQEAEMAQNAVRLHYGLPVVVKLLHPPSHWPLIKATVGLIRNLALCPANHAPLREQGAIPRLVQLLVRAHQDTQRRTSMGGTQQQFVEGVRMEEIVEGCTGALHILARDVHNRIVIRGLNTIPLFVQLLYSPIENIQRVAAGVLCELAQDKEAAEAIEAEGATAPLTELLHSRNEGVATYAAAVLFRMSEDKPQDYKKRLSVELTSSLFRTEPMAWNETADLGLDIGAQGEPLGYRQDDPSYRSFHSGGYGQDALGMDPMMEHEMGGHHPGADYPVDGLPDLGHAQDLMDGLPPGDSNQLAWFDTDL

B-cat-Halo [2] = biological target: T2, B-cat-Halo (UniProt P35222 2-781); assay: cell-based or functional assay
T2 sequence (looked up): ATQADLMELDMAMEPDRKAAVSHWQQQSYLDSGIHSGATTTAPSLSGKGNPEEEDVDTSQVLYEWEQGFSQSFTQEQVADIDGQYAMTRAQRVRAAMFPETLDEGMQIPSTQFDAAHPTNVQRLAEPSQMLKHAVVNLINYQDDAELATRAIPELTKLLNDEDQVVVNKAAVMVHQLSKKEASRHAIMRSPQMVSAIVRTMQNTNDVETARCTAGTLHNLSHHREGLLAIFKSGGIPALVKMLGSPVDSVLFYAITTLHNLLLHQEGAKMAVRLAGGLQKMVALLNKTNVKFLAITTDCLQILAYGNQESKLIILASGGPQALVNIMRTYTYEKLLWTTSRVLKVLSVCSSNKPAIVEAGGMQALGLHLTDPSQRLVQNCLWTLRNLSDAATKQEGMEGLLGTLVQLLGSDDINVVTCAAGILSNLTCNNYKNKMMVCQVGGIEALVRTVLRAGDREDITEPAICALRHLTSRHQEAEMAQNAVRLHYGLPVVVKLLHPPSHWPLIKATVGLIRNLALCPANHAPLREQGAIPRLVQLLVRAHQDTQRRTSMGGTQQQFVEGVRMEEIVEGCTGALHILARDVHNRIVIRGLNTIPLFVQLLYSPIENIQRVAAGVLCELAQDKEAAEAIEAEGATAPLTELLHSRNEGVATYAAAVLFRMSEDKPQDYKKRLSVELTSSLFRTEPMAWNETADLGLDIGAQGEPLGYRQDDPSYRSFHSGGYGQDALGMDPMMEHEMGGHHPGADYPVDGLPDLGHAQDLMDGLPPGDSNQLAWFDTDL

[3] = biological target: T3, full-length beta-Catenin (Uniprot ID P35222) (Homo sapiens (Human), UniProt P35222 2-781); assay: fluorescence polarization competition; full-length beta-catenin with 5FAM-TCF4(10-53) probe as competitor
T3 construct: No tag is stated for the FP assay; also called bCat; B-Catenin
T3 sequence: T2 sequence (looked up)
Procedure: The plate was incubated protected from light for 60 minutes at 20° C. prior to read. Reads were performed on a CLARIOstar plate reader (BMG Labtech) in duplicate, and data were fitted to a 1:1 binding model with hill slope using an in-house script. All provided concentrations are final concentrations.

NanoBRET Abs IC50 (B-cat-Halo [1]): 21.7 µM
Binder: Ac-[αAllylPro]D[tBuAla][B5(4)]D[TfeGA]AAFL[PyrS2″][3Thi][Bta]T-NH2 (staple 1-4, 4-11; also: -CH=CH- in each staple reduced to -CH2-CH2-) [I-1716]

NanoBRET Abs IC50 (B-cat-Halo [2]): 37.7 µM
B1: I-1794 (peptide)
peptide: Ac-[αAllylPro]D[tBuAla][B5(3)]DHAAF[hSer][PyrS2″][3Thi][Bta]Q-NH2
modifications: staple 1-4, 4-11; not fully specified; printed as Ac-PL3-Asp-Npg-B5-Asp-His-Ala-Ala-Phe-Hse-PyrS2-3Thi-BztA-Gln-NH2

NanoBRET Abs IC50 (B-cat-Halo [2]): 8.7 µM
Binder: Ac-[αAllylPro]D[Nle][B5(19)]D[TfeGA]AAFL[PyrS2][3Thi][Bta]Q-NH2 (staple 1-4, 4-11) [I-1777]

NanoBRET Abs IC50 (B-cat-Halo [1]): > 20 µM
Binder: Ac-[αAllylPro][AspSH][tBuAla][B5]DDAAFN[PyrS2][Phe(2-Cl)][Bta]Q-NH2 (staple 1-4, 4-11; not fully specified) [I-1721]

NanoBRET Abs IC50 (B-cat-Halo [2]): 6.8 µM
Binder: Ac-[αAllylPro]D[hLeu(5-Me)][B5(5)]D[TfeGA]AAFL[PyrS2″][3Thi][Bta]Q-NH2 (staple 1-4, 4-11) [I-1772]

IC50 [3]: 0.082 µM
B2: I-494 (peptide)
peptide: XDAXDEAAFQXFXQ
modifications: not fully specified; Ac-PL3-Asp-Ala-B5-Asp-Glu-Ala-Ala-Phe-Gln-S8-Phe-BztA-DGIn-NH2 (so in the source); D-Gln at 14); N-terminal acetyl, C-terminal amide; PL3(1)-B5(4) and B5(4)-S8(11) stapled by olefin metathesis; BztA at 13
notes: Stapled (stitched) peptide composition

IC50 [3]: 0.153 µM
B3: I-491 (peptide)
peptide: Ac-[αAllylPro]DA[B5(17)]DEAAFQ[S8]F[Bta][hSer]-NH2
modifications: staple 1-4, 4-11; also: earlier eluting HPLC peak, E/Z not assigned
notes: Stapled peptide; this is the earlier eluting HPLC peak (staple isomer composition)

IC50 [3]: 0.088 µM
B4: I-493 (peptide)
peptide: XDAXDEAAFQXFXS
modifications: not fully specified; Ac-PL3-Asp-Ala-B5-Asp-Glu-Ala-Ala-Phe-Gln-S8-Phe-BztA-DSer-NH2; N-terminal acetyl, C-terminal amide; PL3(1)-B5(4) and B5(4)-S8(11) stapled by olefin metathesis; BztA at 13; D-Ser at 14
notes: as for B2

IC50 [3]: 0.053 µM
B5: I-492 (peptide)
peptide: Ac-[αAllylPro]DA[B5(17)]DEAAFQ[S8]F[Bta][hSer]-NH2
modifications: staple 1-4, 4-11; also: later eluting HPLC peak, E/Z not assigned
notes: Stapled peptide; this is the later eluting HPLC peak (staple isomer composition)

IC50 [3]: 0.119 µM
Binder: Ac-[αAllylPro]DT[B5(29)]DEAAFQ[S8]F[Bta]Q-NH2 (staple 1-4, 4-11, Stapled (stitched) peptide composition) [I-477]

NanoBRET Abs IC50 (B-cat-Halo [2]): 33.9 µM
Binder: Ac-[αAllylPro]D[tBuAla][B5(19)]DWAAFN[PyrS2][3Thi][Bta]Q-NH2 (staple 1-4, 4-11) [I-1788]

NanoBRET Abs IC50 (B-cat-Halo [2]): 8.6 µM
Binder: Ac-[αAllylPro]D[tBuAla][B5(5)]D[TfeGA]AAF[tBuAla][PyrS2″][3Thi][Bta]Q-NH2 (staple 1-4, 4-11) [I-1773]

NanoBRET Abs IC50 (B-cat-Halo [2]): 8.9 µM
Binder: Ac-[αAllylPro]D[tBuAla][B5(5)]D[TfeGA″]AAF[Cha][PyrS2(4)][3Thi][Bta]Q-NH2 (staple 1-4, 4-11; not fully specified; reading uncertain) [I-1774]

NanoBRET Abs IC50 (B-cat-Halo [2]): 42.3 µM
Binder: Ac-[αAllylPro]D[tBuAla][B5(19)]D[hTyr]AAFN[PyrS2][3Thi][Bta]Q-NH2 (staple 1-4, 4-11) [I-1785]

NanoBRET Abs IC50 (B-cat-Halo [2]): 22.8 µM
Binder: Ac-[αAllylPro]D[tBuAla][B5(3)]DHAAFL[PyrS2(4)][3Thi][Bta]Q-NH2 (staple 1-4, 4-11; not fully specified; reading uncertain) [I-1795]
